We go through 30 sequences from the nanobody polyreactivity screen of Harvey et al. (2022).

A short description of the series: yeast display, Sf9 membrane polyspecificity reagent, FACS + sequencing; frameworks hold sequencing errors. The essentials: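 After 36–48 hours of galactose induction, yeast (Saccharomyces cerevisiae BJ5465) displaying a synthetic nanobody library were stained at 4 °C for 1 hour with 10% biotinylated, detergent-solubilized Sf9 membrane reagent. Streptavidin microbeads enriched the stained cells before FACS sorting into low and high (top ~1%) gates on anti-HA and streptavidin fluorescence. Each clone's polyreactivity label reflects its gate of origin.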
Regarding “QFQLVESGGGLVQAGGSLRLSCAASGRIFGDNAMGWYRQAPGKERELVADIDSGGRTNYADSVKGRFTISRDNAKNTVYLQMNSLKPEDTAVYYCARDDIAYLVEYDYWGQGTQVTVSS”, the “polyreactivity (PSR sort gate)” value is reported as “low polyreactivity”.

Take “QGQLEESGGGLVQAGGSLRLSCAAYGRIFYEYAMGLYRQAPGKERELVAISTAGCNTYYADSVKGRFTISRDNGKNTDYLQMNILKPEDTAVYYCAARLQYYPYYYWGQGTQVTVSS”: the “polyreactivity (PSR sort gate)” value was “high polyreactivity”.

For the sequence “QVQLVESGAGLVQAGGSLRLSCAASGRIFNWYVMGWYRQAPGKERELVAAINSGGITKYADSVKGRFTISRDNAKNTVYLQMNSLKPEDTAVYYCAAYYRRYDYDYWGQGTQVTVSS”, the “polyreactivity (PSR sort gate)” value is “high polyreactivity”. Turning to “QVQLVESVGGLAQSRGSLRLSCAASGRTFFPNAMGWYRQAPGKERELVAAITNGDSTHYADSVKRRFTISRDNAKNTVYLQMNSLKPEDTADYYCAAEDHYEGYGGYYWGQVTQVTVSS”, the “polyreactivity (PSR sort gate)” value was “low polyreactivity”.

For the sequence “QVQLVESGGGLVQAGGSLRLSCAASGSTFGYYAMGWYRQAPGKERELVATITWSGGSTNYADSVKGRFTISRDNAKNTVYLQMNSLKPEDTAVYYCAADLKYWYFGLAFIEVDYWGQGTQVTVSS”, the “polyreactivity (PSR sort gate)” value is reported as “low polyreactivity”. For the sequence “QVQLVESGGGLVQAGGSLRLSCAASGFTFTDYAMGWYRQAPGKERELVAAISGIGGSTYYADSVKGRFTISRDNAKNTVYLQMNSLKPEDTAVYYCAAELTKWRFWGLHDSWGQGTQVTVSS”, the “polyreactivity (PSR sort gate)” value is reported as “high polyreactivity”.

Turning to “QVQLVESGGGLVQAGGSLRLSCAASGSIFSYYAMGWYRQAPGKERELVAAISSRGGSTYYADSVKGRFTISRDNAKKTVYLQMNSLKPEDTAVYYCAADWTSWFGVTYDYWGQGTQVTVSS”, the “polyreactivity (PSR sort gate)” value is given as “high polyreactivity”. To “QVQLGESGGGLVQAGGSLRLSCAASGRTFIYDAMGWYRQAPGKERELVAGISRNGGRTYYADSVKGRFTISRDNAKNTVYLKMNSLKPEDTAVYYCIARTYSYRGYNYWGQGTQVTVSS” belongs “high polyreactivity”.

For the sequence “QVQLVESGGGLVQAGVSLRLSCAASGRTFYRYVMGWYRQAPGKERELVAAITPGGSTYADSVKGRFTISRDNAKNTVYLQMNSLKPEDTAVYFCNKRKASSSGYNYWGQGTQVTVSS”, the “polyreactivity (PSR sort gate)” value is recorded as “low polyreactivity”.

In the case of “QVQLVESGGGLVQAGGCLRLSCAASGRISSSYAMGWYRLAAGKERELVAAITSRGGSTYYADSVKGRFTISRDNAKNTVYLQMNSLKPEDTAVYYCNAPGYLTYDHSYDYWGQGTQVTVSS”, the “polyreactivity (PSR sort gate)” value is given as “low polyreactivity”. As to “QVQLVESGGGLVQAGGSLRLSCAASGSISDIYTMGWYRQAPGKERELVAAITGSAGSTYADSVKGRFTLSRDNAKNTVYLQMNSLKPEDTAVYYCNAQPGDDVKVKLDYWGQGTQVTVSS”, the “polyreactivity (PSR sort gate)” value is listed as “low polyreactivity”. To “QVQLVESGGGLVQAGGSLRLSCAASASIFADNTMGWYRQAPGKERELVAAITSSGRTYYADSVKGRFTISLDNAKNTVYLQLNSLKPEDTAVYYCAAVIYFHDYSPYYYWGQGTQVTVSS” belongs “high polyreactivity”. Then “KVQLVESGGGLVQAGGSLRLSCAASGFTFRSYAMGWYRQAPGKERDFVAAITINGGSTYYADSVKGRFTISRDNAKNTVYLQMNSLKPEDTAVYYCAAGTLYRIRGYPLWQYDYWGQGTQVTVSS”, with “high polyreactivity”. To “QVQLVESGGGLVQAGGSLRLSCAASGSTFRYYAMGWYRQAPGKERELVAAINSGGSTYYADSVKGRFTISRDNAKNTVYLQMNSLKPEDTAVYYCAAYYFWYLYWGQGTQVTVSS” belongs “high polyreactivity”; to “QVQLVESGGGLVQAGGSLRLSCAASGSTFSIYAMGWYRQAPGKERELVAAITSDGSTYYADSVKGRFTISRDNAKNTVYLQMNSLKPEDTAVYYCAADWWYGWVSYEYWGQGTQVTVSS”, “high polyreactivity”; to “QVQLVESGGVLVQAGGSLRLSCADSGRTFWYYAMGWYRQAPGKEREWVASISASGGSTFYADSVKGRFTISRDNAKNTVSLQMNSLKPEDTAVYYRAAKNAVWRRYEYWGQGTQVTVSS”, “high polyreactivity”. Consider “QVQIVESGGGLVQAGGSLRLSCAASGGIYTRYVMGWYRQAPGTERELVAAISSGGSTYYADSVKGRFTISRDNAKNTDYFQMNSLKPEDTAVYYCAAGYYIYLIRKFIYDYWGQGSQVTVSS”, for which the “polyreactivity (PSR sort gate)” value is reported as “high polyreactivity”. Then “QVQLVESGGGLVQAGGSLRLSCAASGSISDWNAMGWYRQAPGKERELVAAINWSGDTTYYADSVKGRFTFSRDNSKNTVYLQMNSLKPEDTAVYYCAAYLVVDYDWYDYWGQGTQVTVSS”, with “high polyreactivity”; and “QVQHVESGGGLVQAGGSLRLTCAASGRTFGVYAMGWYRQAPGKEREFVAVISWSDDSTYYADSVKGRFTISRDYAKNTVNLQMNSLKPEDTAVYYCNADDYLVYSGSHYGYWGQGTQVTVSS”, with “low polyreactivity”. As for “QVQLVESGGGLVQAGGSLRLSCADSGFTFYRYARGWYRQAPGKERELVADITSGGSTNYADSVKGRFTISRDNAKNTVYLQMNSLKPEDTAVYYCNADRWYGSVYRYGYWGQGTQVTVSS”, the “polyreactivity (PSR sort gate)” value was “high polyreactivity”. Then “QVQLVESAGGLVQAGGSLRLSCAASGLTFYVNAMGWYRQAPGKERELVAAITWSGGSTHYADSVKGRFTISRDNAKNTVYLQMNSLKPEDTAVYYCARATYQHSYVAYDYWGQGTQVTVSS”, with “low polyreactivity”; and “QVQLVESGGGLVQAGGSLRLSCAASGIIFGVYAMGWYRQAPGKERELVASIRYSSVRTYYADSVKGRFTISRDNAKNTVYLQMNSLKPEDTAVYYCAKYYVWPRYGYWGQGTQVTVSS”, with “high polyreactivity”.

Turning to “QVQLVESGGGLVQAGGSLRLSCAASGLTFIYYAMGWYRQARGKERELVAAISRSGGSTYYADSVKGRFTISRDNAKNTVYLQMNSLKPEDTAVYYCAADGTKYSGRVTGDYWGQGTQVTVSS”, the “polyreactivity (PSR sort gate)” value is reported as “high polyreactivity”. “QVQLVESGGGLVQAGGSLRLSCAASRSIFRSYAMGWYTQAPGKERELVAAITSSSGSTYYADSVKGRFTISRDNAKNTVYLQMNSLKPEDTAVYYCNAPYWKSRFRAYYHWGQGTQVTVSS”: the “polyreactivity (PSR sort gate)” value is on record as “high polyreactivity”. To “QVQLVESGGGLVQAGGSLRLSCAASGRTFTVNAMGWYRPAPGKERELVAAISGRSGRTSYADSVKGRFTISRDNAKNNVYLQMNSLKPEDTAVYSCNASGGYSTGSRFEYWGQGTQVTVSS” belongs “high polyreactivity”; to “QVHLVESGGGLVQAGGSLRLSCAASGNIITSYAMGWYRQAPGKERELVAAISSGGTTHYADSVKGRFTISRDNAKNTVYLQMNSLKPEDTAVYYCAARQVSYYKANDSWVRSEYDYWGQGTQVSVSS”, “low polyreactivity”. Consider “QVQLVEACGGLVQAGGSLRLSCAASRSIFPYNAMGWYRQAPGKDRELVATMSSGGSTNYADSVKGRFTISRDNAKNTVYLQKNSLKPEDTAVYYCNAEAAYYPLWMDYWGQGTQVTVSS”, for which the “polyreactivity (PSR sort gate)” value was “low polyreactivity”. Then “QVQLVESGGGLVQAGGSLRLSCAASGTTFDYYAMGWYRQAPGKERELVAVISSSGGSTYYADSVKGRFTISRDNAKNTVYLQMNSLKPEDTAVYYCAALYRNYGSSYAYYYWGQGTQVTVSS”, with “low polyreactivity”; and “QVQLVESGGGLVQAGGSLRLSCAASGFTFLKYAMGGYRQAPGKERDLVARITSGGRTYYADSVKGRFTISRDNAKNTVYLQMNSLKPEDTAVYYCNAVKSYASLYAVFYDWGQGTQVTVSS”, with “high polyreactivity”. To “QVQLVESGGGLVQAGGSVRLSCAASGGTFKANAMGWYRQAPGKERELVAAISWSGGSTYYADSVKGRFTISRDNAKNSVYLQMNSLKPEDTAVYYCRYWKYRSYDYWGQGTQVTVSS” belongs “high polyreactivity”.
